These results are taken from patent publication US8012929B2, “Peptides directed for diagnosis and treatment of amyloid-associated diseases” (Tel Aviv University Future Technology Development L.P., priority 2002, dated 2011).

Entries after “also recorded” stand apart in the source; their conditions may differ. Square brackets hold non-standard residues; d marks the D form. Ends that are not written are not given here. Aib = CC(C)(N)C(=O)O

Common to all, as to format: physicochemical
Series [1] in a line: Kinetic aggregation assay, turbidity at 405 nm (Example 8). Conditions: hIAPP 22-29 analogues incubated for 1 week.
The nature of series [2]: Kinetic aggregation assay (turbidity at 405 nm) of IAPP peptide fragment and alanine mutants. Conditions: 2 mM peptide, 10 mM Tris pH 7.2, 2% DMSO, room temperature. How it is done: To study self-assembly of the IAPP peptide derived fragments, aggregation and insolubilization kinetics were monitored using turbidity measurements at 405 nm.
Kinetic aggregation assay—Fresh peptide stock solutions were prepared by dissolving lyophilized form of the peptides in DMSO, a disaggregating solvent, at a concentration of 100 mM. To avoid any pre-aggregation, fresh stock solutions were prepared prior to each and every experiment. Peptide stock solutions were diluted into assay buffer and plated in 96-well plates as follows: 2 μl of peptides stock solutions were added to 98 μl of 10 mM Tris pH 7.2, resulting in a 2 mM final concentration of the peptide in the presence of 2% DMSO. Turbidity data was measured at 405 nm. A buffer solution including 2% DMSO was used as a blank. Turbidity was measured at room temperature over several time points.

The nature of series [3]: Aggregate mean particle size by dynamic light scattering. The following applies: 100 μM peptide, 1% DMSO, 10 mM Tris pH 7.2. As for the experimental part:
Therefore, the average size of the aggregates, formed by the various peptides, was determined using dynamic light scattering (DLS) experiments.
Method—Freshly prepared peptide stock solutions at a concentration of 10 mM were diluted in 10 mM Tris buffer pH 7.2 and further filtrated through a 0.2 μm filter to a final concentration of 100 μM peptide and 1% DMSO. Particle size measurement was conducted with a laser-powered ALV-NIBS/HPPS non-invasive backscattering instrument. Autocorrelation data was fitted using the ALV-NIBS/HPPS software to derive average apparent hydrodynamic diameters.

Series [4] is described as follows: Congo red binding assay with polarization microscopy (Example 4). The following applies: peptide solutions incubated for four days. How it is done:
Congo red (CR) staining combined with polarization microscopy was utilized to test amyloidogenicity of the peptides of the present invention. […] Invest. 31:232-8; Lansbury (1992) Biochemistry 31:6865-70]. […] Staining was effected by the addition of 1 mM CR in 10 mM Tris buffer pH 7.2 followed by a 1 minute incubation. To remove excess CR, slides were rinsed with double-distilled water and dried. Saturated CR solutions solubilized in 80% ethanol (v/v) were used for poorly aggregating peptides. In such cases, staining was effected without rinsing. Birefringence was determined using a WILD Makroskop m420 (×70) equipped with a polarizing stage.

Series [5] in a line: Negative staining electron microscopy of fibril formation (Example 5). The following applies: 2 mM peptide incubated overnight. How it is done: Method—Peptide solutions (2 mM peptide in 10 mM Tris buffer pH 7.2), were incubated overnight at room temperature. Fibrils formation was assessed using 10 μl sample placed on 200-mesh copper grids, covered with carbon-stabilized formvar film (SPI Supplies, West Chester Pa.). Following 20-30 seconds of incubation, excess fluid was removed and the grids were negatively stained with 2% uranyl acetate in water. Samples were viewed in a JEOL 1200EX electron microscope operating at 80 kV.

Series [6] in a line: Transmission electron microscopy of wild-type and Aib modified hIAPP peptides. The following applies: 5 mM peptide, aged 4 days (wt) or 10 days (modified). How it is done:
Peptide solutions—freshly prepared stock solutions were prepared by dissolving the lyophilized form of the peptides in dimethyl sulfoxide (DMSO) at a concentration of 100 mM. To avoid any pre-aggregation, fresh stock solutions were prepared for each experiment. […] Transmission Electron Microscopy—a 10 μL sample of 5 mM peptide solution in 10 mM Tris buffer, pH 7.2 aged for 4 days (for wt peptides) and for 10 days (for modified peptides) was placed on 400-mesh copper grids (SPI supplies, West Chester Pa.) covered by carbon-stabilized Formvar film. After 1 minute, excess fluid was removed, and the grid was then negatively stained with 2% uranyl acetate in water for another 2 minutes. Samples were viewed in a JEOL 1200EX electron microscope operating at 80 kV.

Series [7] can be described thus: Congo Red staining and birefringence of wild-type and Aib substituted IAPP peptides. The following applies: 5 mM peptide aged for 10 days. How it is done:
Congo Red Staining and Birefringence—A 10 μL suspension of 5 mM peptide solution in 10 mM Tris buffer, pH 7.2 aged for 10 days was allowed to dry overnight on a glass microscope slide. Staining was performed by the addition of a 10 μL suspension of saturated Congo Red (CR) and NaCl in 80% ethanol (v/v) solution. The solution was filtered via 0.2 μm filter. The slide was then dried for a few hours. Birefringence was determined with a SZX-12 Stereoscope (Olympus, Hamburg, Germany) equipped with cross polarizers. 100× magnification is shown.

Series [8] is described as follows: FT-IR of Aib-modified IAPP peptide fragments. The following applies: two week aged peptide solutions. As for the experimental part: Fourier Transform Infrared Spectroscopy—Infrared spectra were recorded using a Nicolet Nexus 470 FT-IR spectrometer with a DTGS detector. Samples of two week aged peptide solutions, were suspended on a CaF2 plate and dried by vacuum. The peptide deposits were resuspended with D2O and subsequently dried to form thin films. The resuspension procedure was repeated twice to ensure maximal hydrogen to deuterium exchange. The measurements were taken using a 4 cm^−1 resolution and 2000 scans averaging. The transmittance minima values were determined by the OMNIC analysis program (Nicolet).

Regarding NLGAILSS, the endpoint turbidity entry in series [1] is on record as “lower extent”.

Consider “L6A: leucine to alanine mutant of the hIAPP peptide fragment, SEQ ID NO: 6 (NFGAIASS)”, for which, in series [2], the “kinetics of aggregation (turbidity at 405 nm)” value (shortened to “kinetics of aggregation”) is “reduced the kinetics of aggregation but did not abolish it completely”. In addition, in series [3], the “apparent hydrodynamic diameter of the structures formed” value (from here on “apparent hydrodynamic diameter”) is listed as “Smaller structures”. The “Congo red binding and birefringence” value in series [4] was “bound CR and exhibited rare but characteristic birefringence”. For the same substance, the “fibril structures by electron microscopy” value in series [5] is “lower in comparison to that of wild type; also recorded: More distinct structures and longer fibrils, albeit less frequent”.

Take ANFLV: in series [6], the “structures by electron microscopy” value is on record as “formed fibrillar structures”. The “Congo Red birefringence” value in series [7] is “typical yellow-green birefringence”. For the same substance, in series [8], the “secondary structure by FT-IR” value is listed as “typical of β-sheet spectra”.

Turning to “I5A: isoleucine to alanine mutant of the hIAPP peptide fragment, SEQ ID NO: 5 (NFGAALSS)”, the “kinetics of aggregation” value in series [2] was “reduced the kinetics of aggregation but did not abolish it completely”. For the same substance, the “apparent hydrodynamic diameter” value in series [3] is recorded as “Smaller structures”. Further, in series [4], the “Congo red binding and birefringence” value is “bound CR and exhibited rare but characteristic birefringence”. In addition, the “fibril structures by electron microscopy” value in series [5] was “lower in comparison to that of wild type; also recorded: More distinct structures and longer fibrils, albeit less frequent”.

As to Aib-NF-Aib-V ([Aib]NF[Aib]V), the “structures by electron microscopy” value in series [6] is given as “no fibrillar structures were evident”. In addition, in series [7], the “Congo Red birefringence” value is reported as “no birefringence”. For the same substance, the “secondary structure by FT-IR” value in series [8] is given as “characteristic to a random coil conformation”.

In the case of NAGAILSS, the endpoint turbidity result in series [1] is listed as “lower extent”.

For the substance “N1A: alanine-scan mutant of the hIAPP peptide fragment, SEQ ID NO: 2 (AFGAILSS)”, the “kinetics of aggregation” value in series [2] is recorded as “higher kinetics of aggregation”. Also, in series [3], the “apparent hydrodynamic diameter” value was “Smaller structures”. In addition, the “Congo red binding and birefringence” value in series [4] is “bound CR and exhibited the characteristic green/gold birefringence”. Further, in series [5], the “fibril structures by electron microscopy” value is given as “tangled net-like structures”.

Turning to NVGAILSS, in series [1], the endpoint turbidity entry is recorded as “lower extent”.

As for “G3A: alanine-scan mutant of the hIAPP peptide fragment, SEQ ID NO: 4 (NFAAILSS)”, the “kinetics of aggregation” value in series [2] is on record as “essentially the same profile as that of wild type peptide”. Moreover, the “apparent hydrodynamic diameter” value in series [3] is “very similar hydrodynamic diameters”. Also, in series [4], the “Congo red binding and birefringence” value is “bound CR and exhibited the characteristic green/gold birefringence”. In series [5], the “fibril structures by electron microscopy” value was “tangled net-like structures”.

Turning to Aib-NF-Aib-VH ([Aib]NF[Aib]VH), in series [6], the “structures by electron microscopy” value is listed as “no fibrillar structures were evident”. In addition, the “Congo Red birefringence” value in series [7] is recorded as “no birefringence”. The “secondary structure by FT-IR” value in series [8] was “characteristic to a random coil conformation”.

As to ANFLVH, the “structures by electron microscopy” value in series [6] is reported as “formed fibrillar structures”. Further, in series [7], the “Congo Red birefringence” value was “typical yellow-green birefringence”. Moreover, the “secondary structure by FT-IR” value in series [8] is given as “typical of β-sheet spectra”.

Consider NIGAILSS, for which, in series [1], the endpoint turbidity result is reported as “some low degree of turbidity”.
